One may read the stoichiometry N as the number of molecules, sites or subunits per partner or assembly.

Two molecules from paper PMC11897130 (Nature Communications, 2025) can be followed below.

The target in data set [1] is human GLT25D1/ColGalT1 (procollagen galactosyltransferase 1), amino acids 30-622, wild type (human) (UniProt Q8NBJ5). The data set is described as follows: cryo-EM structure.
Data set [2] concerns the molecule itself. Kind of data set: cryo-EM structure.

“human GLT25D1/ColGalT1 (procollagen galactosyltransferase 1), amino acids 30-622, wild type (from UniProt Q8NBJ5 30-622) (enzyme)” came in with a stoichiometry N in data set [1] of 2.

B1: human LH3/PLOD3 (multifunctional procollagen lysine hydroxylase and glycosyltransferase LH3), wild type (enzyme)
chain: SDRPRGRDPVNPEKLLVITVATAETEGYLRFLRSAEFFNYTVRTLGLGEEWRGGDVARTVGGGQKVRWLKKEMEKYADREDMIIMFVDSYDVILAGSPTELLKKFVQSGSRLLFSAESFCWPEWGLAEQYPEVGTGKRFLNSGGFIGFATTIHQIVRQWKYKDDDDDQLFYTRLYLDPGLREKLSLNLDHKSRIFQNLNGALDEVVLKFDRNRVRIRNVAYDTLPIVVHGNGPTKLQLNYLGNYVPNGWTPEGGCGFCNQDRRTLPGGQPPPRVFLAVFVEQPTPFLPRFLQRLLLLDYPPDRVTLFLHNNEVFHEPHIADSWPQLQDHFSAVKLVGPEEALSPGEARDMAMDLCRQDPECEFYFSLDADAVLTNLQTLRILIEENRKVIAPMLSRHGKLWSNFWGALSPDEYYARSEDYVELVQRKRVGVWNVPYISQAYVIRGDTLRMELPQRDVFSGSDTDPDMAFCKSFRDKGIFLHLSNQHEFGRLLATSRYDTEHLHPDLWQIFDNPVDWKEQYIHENYSRALEGEGIVEQPCPDVYWFPLLSEQMCDELVAEMEHYGQWSGGRHEDSRLAGGYENVPTVDIHMKQVGYEDQWLQLLRTYVGPMTESLFPGYHTKARAVMNFVVRYRPDEQPSLRPHHDSSTFTLNVALNHKGLDYEGGGCRFLRYDCVISSPRKGWALLHPGRLTHYHEGLPTTWGTRYIMVSFVDP
modifications: N-linked glycans at N63 and N548 (seen in the cryo-EM map)
Turning to B1, the “stoichiometry N” value in data set [2] was found to be 2.
